Consider one molecule from patent US20050065082A1 (published 2005).

The target of experiment [1] is T1, GST-BMAL1 (N-terminal GST fusion protein of human BMAL1; BMAL1b was used) (human, UniProt O00327 1-626).
T1 construct: Expressed in E. coli BL21; not shown: glutathione S-transferase (GST) tag encoded by the pGEX-4T vector (Amersham Pharmacia Biotech), N-terminal
The experiment in a line: not described, Example 3 holds only kinase assays.

Experiment [2] concerns the target T2, GST-BPL1 (N-terminal GST fusion protein of human BPL1, holocarboxylase synthetase) (human, UniProt P50747 1-726).
T2 construct: Expressed in E. coli BL21; not shown: glutathione S-transferase (GST) tag encoded by the pGEX-4T vector (Amersham Pharmacia Biotech), N-terminal
T2 sequence: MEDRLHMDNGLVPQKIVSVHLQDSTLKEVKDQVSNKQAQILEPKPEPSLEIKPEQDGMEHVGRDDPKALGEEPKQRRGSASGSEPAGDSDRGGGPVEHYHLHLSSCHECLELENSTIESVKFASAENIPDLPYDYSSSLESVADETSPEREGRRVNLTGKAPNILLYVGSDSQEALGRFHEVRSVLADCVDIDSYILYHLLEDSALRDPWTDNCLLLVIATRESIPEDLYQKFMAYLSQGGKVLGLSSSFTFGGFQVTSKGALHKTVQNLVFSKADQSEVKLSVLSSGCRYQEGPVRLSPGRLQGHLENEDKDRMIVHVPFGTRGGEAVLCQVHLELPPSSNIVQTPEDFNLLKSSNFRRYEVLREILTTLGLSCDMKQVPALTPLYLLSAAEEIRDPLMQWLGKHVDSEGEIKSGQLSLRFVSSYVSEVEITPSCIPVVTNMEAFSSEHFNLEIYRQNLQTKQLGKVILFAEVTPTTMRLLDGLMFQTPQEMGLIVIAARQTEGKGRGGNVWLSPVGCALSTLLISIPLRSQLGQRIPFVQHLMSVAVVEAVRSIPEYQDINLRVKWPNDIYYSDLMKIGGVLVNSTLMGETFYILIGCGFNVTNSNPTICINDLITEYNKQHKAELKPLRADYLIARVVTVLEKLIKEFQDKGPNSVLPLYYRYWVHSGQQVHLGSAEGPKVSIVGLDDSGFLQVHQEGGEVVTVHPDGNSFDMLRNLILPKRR
The experiment in a line: not described, Example 4 holds only kinase assays.

T1 sequence (O00327 whole entry, the tested form may be a part): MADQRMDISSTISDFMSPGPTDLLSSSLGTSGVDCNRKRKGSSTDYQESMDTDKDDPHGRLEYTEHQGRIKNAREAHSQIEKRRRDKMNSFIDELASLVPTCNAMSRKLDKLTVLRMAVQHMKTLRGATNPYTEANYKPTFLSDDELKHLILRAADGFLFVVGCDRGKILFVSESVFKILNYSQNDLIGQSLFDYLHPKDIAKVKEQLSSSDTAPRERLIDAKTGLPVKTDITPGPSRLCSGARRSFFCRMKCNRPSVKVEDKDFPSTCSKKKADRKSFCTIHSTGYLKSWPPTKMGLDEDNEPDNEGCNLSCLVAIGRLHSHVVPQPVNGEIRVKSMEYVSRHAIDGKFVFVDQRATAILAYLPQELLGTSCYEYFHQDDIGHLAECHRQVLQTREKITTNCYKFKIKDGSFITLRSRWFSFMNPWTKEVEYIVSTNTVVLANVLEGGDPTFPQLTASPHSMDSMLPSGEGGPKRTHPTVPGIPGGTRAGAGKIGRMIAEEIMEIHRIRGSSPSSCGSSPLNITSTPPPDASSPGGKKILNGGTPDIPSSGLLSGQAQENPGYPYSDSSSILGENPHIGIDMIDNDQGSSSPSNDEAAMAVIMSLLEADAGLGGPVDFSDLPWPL

B1: His-JNK3 (activated human JNK3 (JNK3α1) with an N-terminal histidine-tag) (enzyme, UniProt P53779-2 1-422, looked up)
chain: MSLHFLYYCSEPTLDVKIAFCQGFDKQVDVSYIAKHYNMSKSKVDNQFYSVEVGDSTFTVLKRYQNLKPIGSGAQGIVCAAYDAVLDRNVAIKKLSRPFQNQTHAKRAYRELVLMKCVNHKNIISLLNVFTPQKTLEEFQDVYLVMELMDANLCQVIQMELDHERMSYLLYQMLCGIKHLHSAGIIHRDLKPSNIVVKSDCTLKILDFGLARTAGTSFMMTPYVVTRYYRAPEVILGMGYKENVDIWSVGCIMGEMVRHKILFPGRDYIDQWNKVIEQLGTPCPEFMKKLQPTVRNYVENRPKYAGLTFPKLFPDSLFPADSEHNKLKASQARDLLSKMLVIDPAKRISVDDALQHPYINVWYDPAEVEAPPPQIYDKQLDEREHTIEEWKELIYKEVMNSEEKTKNGVVKGQPSPSAQVQQ
notes: Expressed in Sf9 cells by recombinant baculovirus, purified with Probond Resin; not shown: N-terminal His-tag and vector residues of pFastBac HT
Regarding B1, the binding result in experiment [1] and in experiment [2] was “binds” each time.
